Laboratory results reported in patent publication US20090099193.

Target: TK substrate 1 (HTRF KinEASE-TK kit; Cisbio Inc.)

B1: EML4-ALK fusion polypeptide v3 having the FLAG tag at the N-terminus (protein)
chain: MDGFAGSLDDSISAASTSDVQDRLSALESRVQQQEDEITVLKAALADVLRRLAISEDHVASVKKSVSSKGQPSPRAVIPMSCITNGSGANRKPSHTSAVSIAGKETLSSAAKSGTEKKKEKPQGQREKKEESHSNDQSPQIRASPSPQPSSQPLQIHRQTPESKNATPTKSIKRPSPAEKSHNSWENSDDSRNKLSKIPSTPKLIPKVTKTADKHKDVIINQAKMSTRKKNSQVYRRKHQELQAMQMELQSPEYKLSKLRTSTIMTDYNPNYCFAGKTSSISDLKEVPRKNITLIRGLGHGAFGEVYEGQVSGMPNDPSPLQVAVKTLPEVCSEQDELDFLMEALIISKFNHQNIVRCIGVSLQSLPRFILLELMAGGDLKSFLRETRPRPSQPSSLAMLDLLHVARDIACGCQYLEENHFIHRDIAARNCLLTCPGPGRVAKIGDFGMARDIYRASYYRKGGCAMLPVKWMPPEAFMEGIFTSKTDTWSFGVLLWEIFSLGYMPYPSKSNQEVLEFVTSGGRMDPPKNCPGPVYRIMTQCWQHQPEDRPNFAIILERIEYCTQDPDVINTALPIEYGPLVEEEEKVPVRPKDPEGVPPLLVSQQAKREEERSPAAPPPLPTTSSGKAAKKPTAAEVSVRVPRGPAVEGGHVNMAFSQSNPPSELHRVHGSRNKPTSLWNPTYGSWFTEKPTKKNNPIAKKEPHERGNLGLEGSCTVPPNVATGRLPGASLLLEPSSLTANMKEVPLFRLRHFPCGNVNYGYQQQGLPLEAATAPGAGHYEDTILKSKNSMNQPGP
For B1, the “count of HTRF (phosphorylation of the peptide substrate), 100 uM ATP against no ATP” value was “increased by about 20 times by the addition of ATP compare to no addition of ATP”.
